The values below come from article PMC6238601, “Specificity for deubiquitination of monoubiquitinated FANCD2 is driven by the N-terminus of USP1” (Life Science Alliance, 2018).

Common to all, as to assay: pull-down; N-terminal Strep-tagged UAF1 complexed with E. coli USP1, 10 μg bound to MagStrep beads and washed; 10 μg recombinant substrate, 1 h on ice; 50 mM Tris pH 7.5, 120 mM NaCl, 5% glycerol, 1 mM DTT, 0.01% Triton X-100, 0.01% ovalbumin; SDS-PAGE; beads without USP1–UAF1 as control
What all share (details): both partners purified

Assay [1] deals with T1, human FANCD2 (hsFANCD2), non-ubiquitinated (human, UniProt Q9BXW9 1-1451).
T1 construct: FANCD2 (Fanconi anemia group D2 protein), human, full length; gene synthesised and optimised for Spodoptera frugiperda; His-3C tag; tags were not removed from FANCD2; also called Fanconi anemia group D2 protein; source: Sf21 (baculovirus), purified (Ni-NTA, anion exchange, SEC)

Assay [2] concerns the target T2, human PCNA-K164Ub (hsPCNA-Ub) (human | , UniProt P12004 1-261; P0CG48 1-76, K164 monoubiquitinated (isopeptide bond to ubiquitin) | C-terminus linked to K164 of PCNA).
T2 construct: PCNA, human; ubiquitin; Covalent conjugate; also called monoubiquitinated PCNA

In assay [3] the target is T3, UAF1 with an N-terminal Strep tag (human, UniProt Q8TAF3 1-677).
T3 construct: UAF1 (USP1-associated factor 1), human; Strep11 tag and linker GGSGGS were added N-terminal of the His-3C tag; as the Strep tag is used for capture, the His-3C stretch was probably kept too (surmise); also called Strep-tagged UAF1; N-terminal Strep-tagged UAF1; source: Sf21 (baculovirus), purified; not shown: Strep11, N-terminal, kept

B1: USP1^Δ1Δ2-L25A–UAF1 complex (Strep-tagged UAF1) (complex)
chain 1: MPGVIPSESNGLSRGSPSKKNRLSAKFFQKKETKRALDFTDSQENEEKASEYRASEIDQVVPAAQSSPINCEKRENLLPFVGLNNLGNTCYLNSILQVLYFCPGFKSGVKHLFNIISRKKEALKDEANQKDKGNCKEDSLASYELICSLQSLIISVEQLQASFLLNPEKYTDELATQPRRLLNTLRELNPMYEGYLQHDAQEVLQCILGNIQETCQLLKKEEVKNVAENEVKPINKGEEQIGFELVEKLFQGQLVLRTRCLECESLTERREDFQDISVPVQEDELSKVEESSEISPEPKTEMKTLRWAISQFASVERIVGEDKYFCENCHHYTEAERSLLFDKMPEVITIHLKCFAASGLEFDCYGGGLSKINTPLLTPLKLSLEEWSTKPTNDSYGLFAVVMHSGITISSGHYTASVKVTDLNSLEQSLKEYEGKWLLFDDSEVKVTEEKDFLNSLSPSTSPTSTPYLLFYKKL
chain 2: not shown
notes: USP1, human; Δ229–408, Δ608–737, L25A; as m12; UAF1, human; as m7; source: E. coli USP1^Δ1Δ2-L25A complexed with Sf21 Strep-UAF1, both purified; not shown: Strep11, N-terminal, kept
As for B1, in assay [1], the binding result was “binds”.

B2: USP1^Δ1Δ2–UAF1 complex (Strep-tagged UAF1) (complex)
chain 1: MPGVIPSESNGLSRGSPSKKNRLSLKFFQKKETKRALDFTDSQENEEKASEYRASEIDQVVPAAQSSPINCEKRENLLPFVGLNNLGNTCYLNSILQVLYFCPGFKSGVKHLFNIISRKKEALKDEANQKDKGNCKEDSLASYELICSLQSLIISVEQLQASFLLNPEKYTDELATQPRRLLNTLRELNPMYEGYLQHDAQEVLQCILGNIQETCQLLKKEEVKNVAENEVKPINKGEEQIGFELVEKLFQGQLVLRTRCLECESLTERREDFQDISVPVQEDELSKVEESSEISPEPKTEMKTLRWAISQFASVERIVGEDKYFCENCHHYTEAERSLLFDKMPEVITIHLKCFAASGLEFDCYGGGLSKINTPLLTPLKLSLEEWSTKPTNDSYGLFAVVMHSGITISSGHYTASVKVTDLNSLEQSLKEYEGKWLLFDDSEVKVTEEKDFLNSLSPSTSPTSTPYLLFYKKL
chain 2: not shown
notes: USP1, human; Δ229–408, Δ608–737; as m8; UAF1, human; as m7; Bait complex formed beforehand and held on MagStrep beads; also called UAF1–USP1; USP1–UAF1; source: E. coli USP1^Δ1Δ2 complexed with Sf21 Strep-UAF1, both purified; not shown: Strep11, N-terminal, kept
Regarding B2, in assay [2], the binding result is recorded as “binds”.

B3: USP1^Δ1Δ2-R22A, E. coli-expressed (enzyme, human, UniProt O94782 1-785, looked up)
chain: MPGVIPSESNGLSRGSPSKKNALSLKFFQKKETKRALDFTDSQENEEKASEYRASEIDQVVPAAQSSPINCEKRENLLPFVGLNNLGNTCYLNSILQVLYFCPGFKSGVKHLFNIISRKKEALKDEANQKDKGNCKEDSLASYELICSLQSLIISVEQLQASFLLNPEKYTDELATQPRRLLNTLRELNPMYEGYLQHDAQEVLQCILGNIQETCQLLKKEEVKNVAENEVKPINKGEEQIGFELVEKLFQGQLVLRTRCLECESLTERREDFQDISVPVQEDELSKVEESSEISPEPKTEMKTLRWAISQFASVERIVGEDKYFCENCHHYTEAERSLLFDKMPEVITIHLKCFAASGLEFDCYGGGLSKINTPLLTPLKLSLEEWSTKPTNDSYGLFAVVMHSGITISSGHYTASVKVTDLNSLEQSLKEYEGKWLLFDDSEVKVTEEKDFLNSLSPSTSPTSTPYLLFYKKL
notes: USP1, human; Δ229–408, Δ608–737, R22A; source: E. coli BL21, purified (GSH resin, SEC)
Regarding B3, in assay [3], the binding result is recorded as “binds”.

B4: USP1^Δ1Δ2-R22K, E. coli-expressed (enzyme, human, UniProt O94782 1-785, looked up)
chain: MPGVIPSESNGLSRGSPSKKNKLSLKFFQKKETKRALDFTDSQENEEKASEYRASEIDQVVPAAQSSPINCEKRENLLPFVGLNNLGNTCYLNSILQVLYFCPGFKSGVKHLFNIISRKKEALKDEANQKDKGNCKEDSLASYELICSLQSLIISVEQLQASFLLNPEKYTDELATQPRRLLNTLRELNPMYEGYLQHDAQEVLQCILGNIQETCQLLKKEEVKNVAENEVKPINKGEEQIGFELVEKLFQGQLVLRTRCLECESLTERREDFQDISVPVQEDELSKVEESSEISPEPKTEMKTLRWAISQFASVERIVGEDKYFCENCHHYTEAERSLLFDKMPEVITIHLKCFAASGLEFDCYGGGLSKINTPLLTPLKLSLEEWSTKPTNDSYGLFAVVMHSGITISSGHYTASVKVTDLNSLEQSLKEYEGKWLLFDDSEVKVTEEKDFLNSLSPSTSPTSTPYLLFYKKL
notes: USP1, human; Δ229–408, Δ608–737, R22K; source: E. coli BL21, purified (GSH resin, SEC)
With B4, in assay [3], the binding result is recorded as “binds”.

B5: USP1^Δ1Δ2-L25A, E. coli-expressed (enzyme, human, UniProt O94782 1-785, looked up)
chain: MPGVIPSESNGLSRGSPSKKNRLSAKFFQKKETKRALDFTDSQENEEKASEYRASEIDQVVPAAQSSPINCEKRENLLPFVGLNNLGNTCYLNSILQVLYFCPGFKSGVKHLFNIISRKKEALKDEANQKDKGNCKEDSLASYELICSLQSLIISVEQLQASFLLNPEKYTDELATQPRRLLNTLRELNPMYEGYLQHDAQEVLQCILGNIQETCQLLKKEEVKNVAENEVKPINKGEEQIGFELVEKLFQGQLVLRTRCLECESLTERREDFQDISVPVQEDELSKVEESSEISPEPKTEMKTLRWAISQFASVERIVGEDKYFCENCHHYTEAERSLLFDKMPEVITIHLKCFAASGLEFDCYGGGLSKINTPLLTPLKLSLEEWSTKPTNDSYGLFAVVMHSGITISSGHYTASVKVTDLNSLEQSLKEYEGKWLLFDDSEVKVTEEKDFLNSLSPSTSPTSTPYLLFYKKL
notes: USP1, human; Δ229–408, Δ608–737, L25A (one of the alanine point mutants of the N-terminus); source: E. coli BL21, purified (GSH resin, SEC)
As for B5, the binding result in assay [3] is given as “binds”.
